Data from patent publication US20210087295A1 (University of Pennsylvania, published 2021).

What was measured:
[1] = biological target: T1, murine fibroblast activation protein (FAP) (mouse, UniProt P97321 1-761); assay: flow cytometry, hybridoma supernatant on BALB/c 3T3 cells with a murine FAP transgene
T1 construct: whole, on cells; also called mouse FAP; muFAP
T1 sequence (looked up): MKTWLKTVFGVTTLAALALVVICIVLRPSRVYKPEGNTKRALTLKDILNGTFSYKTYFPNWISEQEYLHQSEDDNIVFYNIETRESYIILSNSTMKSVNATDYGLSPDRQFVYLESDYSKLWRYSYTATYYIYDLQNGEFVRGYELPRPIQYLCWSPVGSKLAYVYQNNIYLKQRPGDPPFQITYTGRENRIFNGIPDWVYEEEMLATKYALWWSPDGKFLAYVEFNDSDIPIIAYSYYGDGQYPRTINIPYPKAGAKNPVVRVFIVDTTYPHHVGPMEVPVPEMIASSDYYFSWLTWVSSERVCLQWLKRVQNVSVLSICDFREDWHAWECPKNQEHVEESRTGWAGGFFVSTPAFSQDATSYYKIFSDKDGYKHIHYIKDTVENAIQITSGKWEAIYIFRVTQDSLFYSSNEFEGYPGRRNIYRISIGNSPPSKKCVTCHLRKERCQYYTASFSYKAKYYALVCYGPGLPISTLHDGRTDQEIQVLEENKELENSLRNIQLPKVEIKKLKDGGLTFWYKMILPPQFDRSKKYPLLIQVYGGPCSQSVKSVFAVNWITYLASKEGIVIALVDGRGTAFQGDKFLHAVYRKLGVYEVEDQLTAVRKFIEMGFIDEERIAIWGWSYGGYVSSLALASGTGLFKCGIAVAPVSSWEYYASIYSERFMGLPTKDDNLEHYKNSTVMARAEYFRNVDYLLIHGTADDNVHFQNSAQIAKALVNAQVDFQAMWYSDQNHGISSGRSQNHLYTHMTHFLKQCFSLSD
Method: (§1) BALB/c 3T3 cells expressing full-length canine FAP were used to immunize 14 week old BALB/c.FAP^{-/-} mice. All injections were given intraperitoneally and consisted of 1×10⁷ cells in 0.5 ml sterile PBS. An initial immunization was followed by boosts on days 14 and 28; animals were then bled on day 42 followed a boost on day 56, bleeding on day 63, and three more boosts on days 70, 217, and 238. On day 241, […] spleens were harvested, a single cell suspension prepared, and splenocytes fused with sp2/0 cells by the UPENN Hybridoma Core Facility. Hybridoma supernatant were initially screened by FACS on MC KOSA parental (FAP null) vs. canine FAP-transgene expressing MC KOSA.K9FAP using hybridoma supernatants as the primary antibodies and AF488 goat anti-mouse IgG as a secondary. Clone 4G5 was identified as reactive to transduced cells but not parental cells and screened on additional cells to confirm reactivity with FAP expressing but not FAP-negative cells: Human primary fibroblasts, BALB/c 3T3 expressing murine or human FAP transgenes, canine primary fibroblasts, SK KOSA (FAP expressing), and BALB/c 3T3 (FAP negative) cells. 4G5 was then determined to be an IgG1k isotype antibody using Thermo Fisher Rapid ELISA Mouse mAb Isotyping Kit #37503.
(§2) BALB/c 3T3 fibroblast cells transduced to express full-length canine FAP were used to immunize 14 week old BALB/c FAP^{-/-} mice. […]

[2] = biological target: T2, human fibroblast activation protein (FAP) (human, UniProt Q12884 1-760); assay: flow cytometry, hybridoma supernatant on human primary fibroblasts and BALB/c 3T3 cells with a human FAP transgene
T2 construct: whole, on cells; also called human FAP; huFAP
T2 sequence (looked up): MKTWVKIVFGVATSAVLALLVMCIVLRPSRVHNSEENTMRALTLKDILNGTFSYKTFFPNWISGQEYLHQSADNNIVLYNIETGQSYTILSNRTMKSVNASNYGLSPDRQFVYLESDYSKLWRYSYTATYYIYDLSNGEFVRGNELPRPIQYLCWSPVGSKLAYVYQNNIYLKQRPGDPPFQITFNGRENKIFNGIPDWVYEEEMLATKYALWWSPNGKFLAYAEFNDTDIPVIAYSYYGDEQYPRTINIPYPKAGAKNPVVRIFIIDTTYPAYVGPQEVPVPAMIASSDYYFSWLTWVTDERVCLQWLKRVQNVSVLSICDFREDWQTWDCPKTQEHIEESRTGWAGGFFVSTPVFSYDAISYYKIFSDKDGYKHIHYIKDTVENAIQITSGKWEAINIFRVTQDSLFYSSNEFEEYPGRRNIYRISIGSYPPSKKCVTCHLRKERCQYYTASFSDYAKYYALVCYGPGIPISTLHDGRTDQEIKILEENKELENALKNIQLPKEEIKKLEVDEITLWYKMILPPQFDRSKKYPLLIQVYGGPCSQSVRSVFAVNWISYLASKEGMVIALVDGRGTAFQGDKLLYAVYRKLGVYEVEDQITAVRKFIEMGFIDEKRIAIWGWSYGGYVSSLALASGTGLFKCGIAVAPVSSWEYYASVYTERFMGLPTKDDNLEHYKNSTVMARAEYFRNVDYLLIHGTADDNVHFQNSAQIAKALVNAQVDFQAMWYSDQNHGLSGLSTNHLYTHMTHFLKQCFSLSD
Method: as §1, §2

binding result [1]: binds
binding result [2]: binds
B1: clone 4G5 anti-FAP antibody (antibody, mouse IgG1, V domains shown)
VH: QVQLQQPGAELVKPGASVKLSCKASGYTITSYSLHWVKQRPGQGLEWIGEINPANGDHNFSEKFEIKATLTVDSSSNTAFMQLSRLTSEDSAVYYCTRLDDSRFHWYFDVWGAGTTVTVSS
VL: QIVLTQSPALMSASPGEKVTMTCTASSSVSYMYWYQQKPRSSPKPWIFLTSNLASGVPARFSGRGSGTSFSLTISSMEAEDAATYYCQQWSGYPPITFGSGTKLEIK
notes: Mouse IgG1 kappa antibody from a hybridoma, used as hybridoma supernatant in flow cytometry; also called 4G5 immunoglobulin; monoclonal 4G5 antibody
